Numbering of substitutions follows the chain as printed.
B1: IM136 (antibody, V domains shown)
VH: AVTLDESGGGLQTPGGVLSLVCKASGFSFSSYDMGWVRQAPGKGLEWVASIYSSASSTYYAPAVKGRATITRDNGQSTVRLQLNNLRAEDTGTYYCAKAAGRTYRGWATYIADSIDAWGHGTEVIVSS
VL: ALTQPSSVSANPGESVEITCSGDSSWYGYGWYQQKSPGSAPVTLIYESGKRPSDIPSRFSGSTSGSTATLTITGVQADDEAVYYCGSADSNSIGIFGAGTTLTVL
notes: Detected with anti-human IgG Fc secondary
B2: IM-35-N2H07-1HA (antibody, V domains shown)
VH: EVQLLESGGGLVQPGGSLRLSCAASGFTFSGYAMSWVRQAPGKGLEWVAGIYSSGSYTFYADSVKGRFTISRDNSKNTLYLQMNSLRAEDTAVYYCAKGTGYCDWSGWCYSGAANIDAWGQGTLVTVSS
VL: SYELTQPPSVSVSPGQTARITCSGGSGSYGYYGWYQQKPGQAPVLVIYGTNKRPSGIPERFSGSSSGTTVTLTISGVQAEDEADYYCGSEDSSSGAGIFGGGTKLTVL
B3: IM-271-1HBF (antibody, V domains shown)
VH: EVQLLESGGGLVQPGGSLRLSCAASGFTFSSYAMNWVRQAPGKGLEWVAGISSSGRYTGYADSVKGRFTISRDNSKNTLYLQMNSLRAEDTAVYYCAKSVGSGVSWSGYVATSIDAWGQGTLVTVSS
VL: SYELTQPPSVSVSPGQTARITCSAGSGLYGWYQQKPGQAPVLVIYGTNKRPSGIPERFSGSSSGTTVTLTISGVQAEDEADYYCGSADSSTNAGIFGGGTKLTVL
notes: also called CH-HAMF5-1HBF
B4: IM180 (antibody, V domains shown)
VH: B3 VH with T28D, S52G, S54T, R56S, Y57S, S102N, V104N, V110I
VL: SYELTQPPSVSVSPGQTARITCSGGSSGYGWYQQKPGQAPVLVIYSNDKRPSGIPERFSGSSSGTTVTLTISGVQAEDEADYYCGSTDNSYVGIFGGGTKLTVL
notes: Produced with its natural light chain
B5: IM180 w/ F10h cLC (antibody, V domains shown)
VH: B3 VH with T28D, S52G, S54T, R56S, Y57S, S102N, V104N, V110I
VL: SYELTQPPSVSVSPGQTARITCSGGYNGHYGWYQQKPGQAPVLVIYSNNQRPSGIPERFSGSSSGTTVTLTISGVQAEDEADYYCGGYDSSAGIFGGGTKLTVL
notes: IM180 heavy chain paired with the common light chain F10h
B6: IM-271-1HFJ (antibody, V domains shown)
VH: B3 VH with V100M, A116V
VL: B3 VL
notes: also called CH-HAMF5-1HFJ
B7: IM271 w/ F10h cLC (antibody, V domains shown)
VH: B3 VH with N35S, S102N, V104N, V110I
VL: B5 VL
notes: IM271 heavy chain paired with the common light chain F10h
B8: IM-271-1HBG (antibody, V domains shown)
VH: B3 VH with V100M
VL: B3 VL
notes: also called CH-HAMF5-1HBG
B9: IM-271-1HFB (antibody, V domains shown)
VH: B3 VH with V100M
VL: B3 VL with A24G, L28S, N48Y
notes: also called CH-HAMF5-1HFB
B10: IM-271-1HGT (antibody, V domains shown)
VH: B3 VH with I114L, A116V
VL: B3 VL with A87N, S89A
notes: also called CH-HAMF5-1HGT
B11: IM-271-1HHR (antibody, V domains shown)
VH: B3 VH with V100M, I114L, A116V
VL: B3 VL with A24G, L28S, N48Y
notes: also called CH-HAMF5-1HHR
B12: IM271 (antibody, V domains shown)
VH: B3 VH with N35S, S102N, V104N, V110I
VL: B3 VL with A24G, L28S
B13: IM-271-1HHP (antibody, V domains shown)
VH: B3 VH with I114L, A116V
VL: B3 VL with A24G, L28S, N48Y
notes: also called CH-HAMF5-1HHP
B14: IM-271-1HEP (antibody, V domains shown)
VH: B3 VH with I114L
VL: B3 VL
notes: T0003 prints the label CH-HAMF5-MEP; Tied by the suffix only; also called CH-HAMF5-1HEP; CH-HAMF5-MEP
B15: IM-271-1HAQ (antibody, V domains shown)
VH: B3 VH with N35S, S102N, V104N
VL: B3 VL with A24G, L28S
notes: also called CH-HAMF5-1HAQ
B16: IM172 (antibody, V domains shown)
VH: AVTLDESGGGLQTPGGALSLVCKGSGFSISSYTMQWVRQAPGKGLEWVAGIYSGSRTYYGAAVQGRATISRDNGQSTVRLQLNNLRAEDTGTYYCAKSSYCTAWTGCDVYAGGSIDAWGHGTEVIVSS
VL: ALTQPSSVSATPGGTVEITCSGDSSDDGSYYYGWYQQKSPGSAPVTVIYSNDKRPSSIPSRFSGSASGSTATLTITGVQADDEAVYFCGSYDSSTGIFGAGTTLTVL
notes: as for B1
B17: IM-35-N1F09-1HA (antibody, V domains shown)
VH: EVQLLESGGGLVQPGGSLRLSCAASGFTFSSYGMSWVRQAPGKGLEWVAGIGSSGIYTHYADSVKGRFTISRDNSKNTLYLQMNSLRAEDTAVYYCAKSPGDSDWCGWAGYGIYSCRVAGFIDAWGQGTLVTVSS
VL: B5 VL with S47G, N48T, Q50K

Assays:
Claudin 9 = biological target: T1, Claudin 9 (UniProt O95484 1-217); experiment: biosensor (Forte Octet), intact claudin in virus-like particles (lipoparticles)
T1 construct: Octet KD values: intact claudin protein embedded in virus-like particles (lipoparticles); also called CLDN9
T1 sequence (looked up): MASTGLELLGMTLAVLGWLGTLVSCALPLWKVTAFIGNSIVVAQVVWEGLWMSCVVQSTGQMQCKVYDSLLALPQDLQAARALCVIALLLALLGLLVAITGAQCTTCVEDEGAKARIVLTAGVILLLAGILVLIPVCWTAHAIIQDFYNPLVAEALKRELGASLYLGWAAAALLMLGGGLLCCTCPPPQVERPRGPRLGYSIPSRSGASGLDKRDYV
Experimental: Affinity of various antibodies against CLDN6 as compared to CLDN9, CLDN3, and CLDN4 was measured using a biosensor. Biosensor affinity measurement of the various antibodies against the proteins was determined using a Forte Octet, which was used for biosensor measurements, using intact claudin proteins embedded in virus-like particles (lipoparticles). The KD for different antibodies is shown below.

Claudin 3 = biological target: T2, Claudin 3 (UniProt O15551 1-220); experiment: flow cytometry, HEK-293T cells transiently transfected with the indicated claudin; pUC19 = empty vector control
T2 construct: also called CLDN3
T2 sequence (looked up): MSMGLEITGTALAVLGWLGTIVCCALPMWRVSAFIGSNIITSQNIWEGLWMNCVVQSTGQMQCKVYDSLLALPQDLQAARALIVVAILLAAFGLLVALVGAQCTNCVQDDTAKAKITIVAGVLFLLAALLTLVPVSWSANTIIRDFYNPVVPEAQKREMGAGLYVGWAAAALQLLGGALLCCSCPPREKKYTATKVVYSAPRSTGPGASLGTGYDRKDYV
Experimental: (§1) FIG. 2 illustrates the results of a binding assay showing that Claudin 6 MAbs bind to human Claudin 6 preferentially over other Claudin proteins. Human embryonic kidney 293T (HEK-293T) cells were transiently transfected with DNA for the indicated Claudin protein or empty vector along with GFP (pUC) for 22 hours.

Claudin 4 = biological target: T3, Claudin 4 (UniProt O14493 1-209); experiment: as above
T3 construct: also called CLDN4
T3 sequence (looked up): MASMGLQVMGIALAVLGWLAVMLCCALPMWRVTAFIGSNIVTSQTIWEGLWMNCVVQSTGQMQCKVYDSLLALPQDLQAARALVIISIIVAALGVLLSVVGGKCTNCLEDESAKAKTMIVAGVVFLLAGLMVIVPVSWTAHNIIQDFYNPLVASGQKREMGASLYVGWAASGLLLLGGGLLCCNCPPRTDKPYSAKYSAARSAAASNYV
Experimental: as §1

Claudin 6 (human) [1] = biological target: T4, Claudin 6 (human) (human, UniProt P56747 1-220); experiment: binding assay of the 13th table, method not described
T4 construct: Expressed on transfected HEK-293T cells or naturally on PA-1 cells for flow cytometry; For the Octet KD values it was the intact protein embedded in virus-like particles (lipoparticles); also called hsCLDN6; CLDN6
T4 chain: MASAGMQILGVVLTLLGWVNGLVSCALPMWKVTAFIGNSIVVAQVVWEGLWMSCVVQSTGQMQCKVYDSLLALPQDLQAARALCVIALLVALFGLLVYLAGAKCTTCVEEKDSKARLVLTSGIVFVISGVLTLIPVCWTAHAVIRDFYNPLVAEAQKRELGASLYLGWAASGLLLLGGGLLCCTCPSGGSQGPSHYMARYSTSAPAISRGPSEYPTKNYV

Claudin 6 (human) [2] = biological target: T4, Claudin 6 (human); experiment: flow cytometry, 66 nM MAb on HEK-293T cells expressing claudin6
Experimental: Expression and Binding of claudin6 MAbs. Claudin 6 MAbs produced using their natural light chain, or produced using a different light chain. Yield represents the preparation of the purified MAb and ug of protein resulting from the preparation. Binding represents 66 nM of the indicated MAb binding to HEK-293T cells expressing the target claudin6. The Controls represents the same MAbs staining HEK-293T cells not transfectedwith claudin6. Staining was detected by flow cytometry (geometric mean fluorescence). N/A, not available.

Claudin 6 (human) [3] = biological target: T4, Claudin 6 (human); experiment: flow cytometry, HEK-293T cells transfected with plasmids for the indicated proteins; pUC = empty vector control

| Binder | EC50 (Claudin 6 (human) [1]) [nM] | further results |
| --- | --- | --- |
| B1 | – | Kd (Claudin 9): 386 nM; binding result (Claudin 3): no binding (tested: log [mAb] about -7.2 M); binding result (Claudin 4): no binding (tested: log [mAb] about -7.2 M) |
| B2 | < 4 | – |
| B3 | < 4 | – |
| B4 | – | Binding (geometric mean fluorescence) (Claudin 6 (human) [2]): 46900 geometric mean fluorescence |
| B5 | – | Binding (geometric mean fluorescence) (Claudin 6 (human) [2]): 10100 geometric mean fluorescence |
| B6 | < 4 | – |
| B7 | – | Binding (geometric mean fluorescence) (Claudin 6 (human) [2]): 160000 geometric mean fluorescence |
| B8 | < 4 | – |
| B9 | < 4 | – |
| B10 | < 4 | – |
| B11 | < 4 | – |
| B12 | < 4 | Binding (geometric mean fluorescence) (Claudin 6 (human) [2]): 63000 geometric mean fluorescence; EC50 (read off the curve) (Claudin 6 (human) [3]): ~0.4 µg/mL |
| B13 | < 4 | – |
| B14 | < 4 | – |
| B15 | < 4 | – |
| B16 | – | Kd (Claudin 9): 81 nM |
| B17 | < 4 | – |
